Assays:
[1] = target: LysIME-EF1 CBD (residues 168-237) with an N-terminal 6xHis-tag (E. faecalis phage); assay: SEC; single purified CBD proteins; Superdex 200, 20 mM Tris-HCl pH 8.0, 150 mM NaCl, 0.5 ml/min, 16°C
[2] = target: truncated LysIME-EF1 CBD fragment (8 kDa), product of the internal translation start at M168 (E. faecalis phage); assay: crystal structure; LysIME-EF1 CBD, space group I422, 1.75 Å, one molecule in the asymmetric unit, tetramer by crystallographic symmetry (PDB 6L00)
[3] = target: full-length LysIME-EF1 (wild type), N-terminally 6xHis-tagged (E. faecalis phage); assay: crystal structure; Se-Met WT LysIME-EF1, space group P12(1)1, 1.75 Å, Se-SAD (PDB 6IST)

| stoichiometry N [1] | stoichiometry N [2] | stoichiometry N [3] | Substance |
| --- | --- | --- | --- |
| 4 |  |  | LysIME-EF1 CBD (residues 168-237) with an N-terminal 6xHis-tag (domain or fragment) |
|  | 4 | 3 | truncated LysIME-EF1 CBD fragment (8 kDa), product of the internal translation start at M168 (domain or fragment) |

From article PMC7098653
